This is an account of results in US20250026846A1 (JCR PHARMACEUTICALS, published 2025).

The target in assay [1] is T1, recombinant human TfR (r human TfR: Sino Biological Inc.), hTfR extracellular region with a histidine tag at … (human, UniProt P02786 89-760).
T1 construct: Bought from Sino Biological; also called r human TfR-ECD (Histag); recombinant hTfR; not shown: histidine tag at the N-terminus
Kind of assay: BLI (Octet RED96), His-tagged TfR ECD on Ni-NTA sensor. (In general: In BLI a coated tip is dipped into the sample, and binding shifts an interference pattern.)

Assay [2] deals with T2, recombinant monkey TfR (r monkey TfR: Sino Biological Inc.), crab-eating monkey TfR extracellular region with … (crab-eating monkey (Macaca fascicularis)).
T2 construct: Bought from Sino Biological; also called r monkey TfR-ECD (Histag); not shown: histidine tag at the N-terminus
T2 chain: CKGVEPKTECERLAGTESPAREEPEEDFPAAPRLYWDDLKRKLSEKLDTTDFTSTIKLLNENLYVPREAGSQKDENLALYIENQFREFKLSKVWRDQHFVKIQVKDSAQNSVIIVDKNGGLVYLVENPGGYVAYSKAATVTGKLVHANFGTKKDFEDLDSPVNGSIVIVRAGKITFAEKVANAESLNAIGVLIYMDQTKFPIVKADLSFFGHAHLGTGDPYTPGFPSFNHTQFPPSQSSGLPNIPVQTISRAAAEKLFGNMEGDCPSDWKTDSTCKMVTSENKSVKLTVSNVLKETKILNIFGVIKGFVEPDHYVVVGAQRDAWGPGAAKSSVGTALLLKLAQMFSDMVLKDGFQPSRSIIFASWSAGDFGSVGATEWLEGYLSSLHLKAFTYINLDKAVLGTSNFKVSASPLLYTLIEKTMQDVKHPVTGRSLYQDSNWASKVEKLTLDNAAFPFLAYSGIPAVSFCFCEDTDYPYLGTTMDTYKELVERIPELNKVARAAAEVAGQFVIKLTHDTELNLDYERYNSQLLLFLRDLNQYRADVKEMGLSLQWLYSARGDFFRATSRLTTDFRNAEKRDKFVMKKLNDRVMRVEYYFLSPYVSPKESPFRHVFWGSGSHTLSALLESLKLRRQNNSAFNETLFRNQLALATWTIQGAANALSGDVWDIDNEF
Described as above.

B1: Fab GS3-GALC (other)
light: DIVMTQTPLSLSVTPGQPASISCRSSQSLVHSNGNTYLHWYLQKPGQSPQLLIYKVSNRFSGVPDRFSGSGSGTDFTLKISRVEAEDVGVYYCSQSTHVPWTFGQGTKVEIKRTVAAPSVFIFPPSDEQLKSGTASVVCLLNNFYPREAKVQWKVDNALQSGNSQESVTEQDSKDSTYSLSSTLTLSKADYEKHKVYACEVTHQGLSSPVTKSFNRGEC
heavy: EVQLVQSGAEVKKPGESLKISCKGSGYSFMNYWLGWVRQMPGKGLEWMGDIYPGGDYPTYSEKFKVQVTISADKSISTAYLQLSSLKASDTAMYYCARSGNYDEVAYWGQGTLVTVSSASTKGPSVFPLAPSSKSTSGGTAALGCLVKDYFPEPVTVSWNSGALTSGVHTFPAVLQSSGLYSLSSVVTVPSSSLGTQTYICNVNHKPSNTKVDKKVEPKSCDKTHTGGGGSGGGGSGGGGSYVLDDSDGLGREFDGIGAVSGGGATSRLLVNYPEPYRSQILDYLFKPNFGASLHILKVEIGGDGQTTDGTEPSHMHYALDENYFRGYEWWLMKEAKKRNPNITLIGLPWSFPGWLGKGFDWPYVNLQLTAYYVVTWIVGAKRYHDLDIDYIGIWNERSYNANYIKILRKMLNYQGLQRVKIIASDNLWESISASMLLDAELFKVVDVIGAHYPGTHSAKDAKLTGKKLWSSEDFSTLNSDMGAGCWGRILNQNYINGYMTSTIAWNLVASYYEQLPYGRCGLMTAQEPWSGHYVVESPVWVSAHTTQFTQPGWYYLKTVGHLEKGGSYVALTDGLGNLTIIIETMSHKHSKCIRPFLPYFNVSQQFATFVLKGSFSEIPELQVWYTKLGKTSERFLFKQLDSLWLLDSDGSFTLSLHEDELFTLTTLTTGRKGSYPLPPKSQPFPSTYKDDFNVDYPFFSEAPNFADQTGVFEYFTNIEDPGEHHFTLRQVLNQRPITWAADASNTISIIGDYNWTNLTIKCDVYIETPDTGGVFIAGRVNKGGILIRSARGIFFWIFANGSYRVTGDLAGWIIYALGRVEVTAKKWYTLTLTIKGHFTSGMLNDKSLWTDIPVNFPKNGWAAIGTHSFEFAQFDNFLVEATR
notes: also called Fab HC-GS3-GALC
On to B1, for which, in assay [1], the Kd (in general, a measure of binding affinity in units of concentration) is < 0.001 nM; the koff (in general, the rate constant with which the complex falls apart) is < 1e-07 s⁻¹; the kon (in general, a measure of how fast the partners come together) stood at 224000 M⁻¹ s⁻¹. In addition, in assay [2], the Kd is 1.4 nM, the koff came to 0.000154 s⁻¹ and the kon is 111000 M⁻¹ s⁻¹.

B2: Fab GS3-LAMAN (other)
light: DIVMTQTPLSLSVTPGQPASISCRSSQSLVHSNGNTYLHWYLQKPGQSPQLLIYKVSNRFSGVPDRFSGSGSGTDFTLKISRVEAEDVGVYYCSQSTHVPWTFGQGTKVEIKRTVAAPSVFIFPPSDEQLKSGTASVVCLLNNFYPREAKVQWKVDNALQSGNSQESVTEQDSKDSTYSLSSTLTLSKADYEKHKVYACEVTHQGLSSPVTKSFNRGEC
heavy: EVQLVQSGAEVKKPGESLKISCKGSGYSFMNYWLGWVRQMPGKGLEWMGDIYPGGDYPTYSEKFKVQVTISADKSISTAYLQLSSLKASDTAMYYCARSGNYDEVAYWGQGTLVTVSSASTKGPSVFPLAPSSKSTSGGTAALGCLVKDYFPEPVTVSWNSGALTSGVHTFPAVLQSSGLYSLSSVVTVPSSSLGTQTYICNVNHKPSNTKVDKKVEPKSCDKTHTGGGGSGGGGSGGGGSGGYETCPTVQPNMLNVHLLPHTHDDVGWLKTVDQYFYGIKNDIQHAGVQYILDSVISALLADPTRRFIYVEIAFFSRWWHQQTNATQEVVRDLVRQGRLEFANGGWVMNDEAATHYGAIVDQMTLGLRFLEDTFGNDGRPRVAWHIDPFGHSREQASLFAQMGFDGFFFGRLDYQDKWVRMQKLEMEQVWRASTSLKPPTADLFTGVLPNGYNPPRNLCWDVLCVDQPLVEDPRSPEYNAKELVDYFLNVATAQGRYYRTNHTVMTMGSDFQYENANMWFKNLDKLIRLVNAQQAKGSSVHVLYSTPACYLWELNKANLTWSVKHDDFFPYADGPHQFWTGYFSSRPALKRYERLSYNFLQVCNQLEALVGLAANVGPYGSGDSAPLNEAMAVLQHHDAVSGTSRQHVANDYARQLAAGWGPCEVLLSNALARLRGFKDHFTFCQQLNISICPLSQTAARFQVIVYNPLGRKVNWMVRLPVSEGVFVVKDPNGRTVPSDVVIFPSSDSQAHPPELLFSASLPALGFSTYSVAQVPRWKPQARAPQPIPRRSWSPALTIENEHIRATFDPDTGLLMEIMNMNQQLLLPVRQTFFWYNASIGDNESDQASGAYIFRPNQQKPLPVSRWAQIHLVKTPLVQEVHQNFSAWCSQVVRLYPGQRHLELEWSVGPIPVGDTWGKEVISRFDTPLETKGRFYTDSNGREILERRRDYRPTWKLNQTEPVAGNYYPVNTRIYITDGNMQLTVLTDRSQGGSSLRDGSLELMVHRRLLKDDGRGVSEPLMENGSGAWVRGRHLVLLDTAQAAAAGHRLLAEQEVLAPQVVLAPGGGAAYNLGAPPRTQFSGLRRDLPPSVHLLTLASWGPEMVLLRLEHQFAVGEDSGRNLSAPVTLNLRDLFSTFTITRLQETTLVANQLREAASRLKWTTNTGPTPHQTPYQLDPANITLEPMEIRTFLASVQWKEVDG
notes: also called Fab HC-GS3-LAMAN
On to B2, for which, in assay [1], the Kd is < 0.001 nM, the koff is < 1e-07 s⁻¹ and the kon stood at 729000 M⁻¹ s⁻¹. In assay [2], the Kd is < 0.001 nM, the koff is < 1e-07 s⁻¹ and the kon is 357000 M⁻¹ s⁻¹.

B3: Fab GS3-AC (other)
light: DIVMTQTPLSLSVTPGQPASISCRSSQSLVHSNGNTYLHWYLQKPGQSPQLLIYKVSNRFSGVPDRFSGSGSGTDFTLKISRVEAEDVGVYYCSQSTHVPWTFGQGTKVEIKRTVAAPSVFIFPPSDEQLKSGTASVVCLLNNFYPREAKVQWKVDNALQSGNSQESVTEQDSKDSTYSLSSTLTLSKADYEKHKVYACEVTHQGLSSPVTKSFNRGEC
heavy: EVQLVQSGAEVKKPGESLKISCKGSGYSFMNYWLGWVRQMPGKGLEWMGDIYPGGDYPTYSEKFKVQVTISADKSISTAYLQLSSLKASDTAMYYCARSGNYDEVAYWGQGTLVTVSSASTKGPSVFPLAPSSKSTSGGTAALGCLVKDYFPEPVTVSWNSGALTSGVHTFPAVLQSSGLYSLSSVVTVPSSSLGTQTYICNVNHKPSNTKVDKKVEPKSCDKTHTGGGGSGGGGSGGGGSQHAPPWTEDCRKSTYPPSGPTYRGAVPWYTINLDLPPYKRWHELMLDKAPVLKVIVNSLKNMINTFVPSGKIMQVVDEKLPGLLGNFPGPFEEEMKGIAAVTDIPLGEIISFNIFYELFTICTSIVAEDKKGHLIHGRNMDFGVFLGWNINNDTWVITEQLKPLTVNLDFQRNNKTVFKASSFAGYVGMLTGFKPGLFSLTLNERFSINGGYLGILEWILGKKDVMWIGFLTRTVLENSTSYEEAKNLLTKTKILAPAYFILGGNQSGEGCVITRDRKESLDVYELDAKQGRWYVVQTNYDRWKHPFFLDDRRTPAKMCLNRTSQENISFETMYDVLSTKPVLNKLTVYTTLIDVTKGQFETYLRDCPDPCIGW
notes: also called Fab HC-GS3-AC
For B3, in assay [1], the Kd stood at 0.209 nM, the koff amounted to 0.000105 s⁻¹ and the kon stood at 501000 M⁻¹ s⁻¹. In assay [2], the dissociation constant Kd was ~11.8 nM, the koff was ~0.00327 s⁻¹ and the kon is 277000 M⁻¹ s⁻¹.

B4: Fab GS3-FUCA1 (other)
light: DIVMTQTPLSLSVTPGQPASISCRSSQSLVHSNGNTYLHWYLQKPGQSPQLLIYKVSNRFSGVPDRFSGSGSGTDFTLKISRVEAEDVGVYYCSQSTHVPWTFGQGTKVEIKRTVAAPSVFIFPPSDEQLKSGTASVVCLLNNFYPREAKVQWKVDNALQSGNSQESVTEQDSKDSTYSLSSTLTLSKADYEKHKVYACEVTHQGLSSPVTKSFNRGEC
heavy: EVQLVQSGAEVKKPGESLKISCKGSGYSFMNYWLGWVRQMPGKGLEWMGDIYPGGDYPTYSEKFKVQVTISADKSISTAYLQLSSLKASDTAMYYCARSGNYDEVAYWGQGTLVTVSSASTKGPSVFPLAPSSKSTSGGTAALGCLVKDYFPEPVTVSWNSGALTSGVHTFPAVLQSSGLYSLSSVVTVPSSSLGTQTYICNVNHKPSNTKVDKKVEPKSCDKTHTGGGGSGGGGSGGGGSQPPRRYTPDWPSLDSRPLPAWFDEAKFGVFIHWGVFSVPAWGSEWFWWHWQGEGRPQYQRFMRDNYPPGFSYADFGPQFTARFFHPEEWADLFQAAGAKYVVLTTKHHEGFTNWPSPVSWNWNSKDVGPHRDLVGELGTALRKRNIRYGLYHSLLEWFHPLYLLDKKNGFKTQHFVSAKTMPELYDLVNSYKPDLIWSDGEWECPDTYWNSTNFLSWLYNDSPVKDEVVVNDRWGQNCSCHHGGYYNCEDKFKPQSLPDHKWEMCTSIDKFSWGYRRDMALSDVTEESEIISELVQTVSLGGNYLLNIGPTKDGLIVPIFQERLLAVGKWLSINGEAIYASKPWRVQWEKNTTSVWYTSKGSAVYAIFLHWPENGVLNLESPITTSTTKITMLGIQGDLKWSTDPDKGLFISLPQLPPSAVPAEFAWTIKLTGVK
notes: also called Fab HC-GS3-FUCA1
For the molecule B4, in assay [1], the Kd was < 0.001 nM, the koff was < 1e-07 s⁻¹ and the kon stood at 282000 M⁻¹ s⁻¹. In assay [2], the Kd came out at 0.323 nM, the koff was 4.88e-05 s⁻¹ and the kon stood at 151000 M⁻¹ s⁻¹.
